# Measured values reported in the DeepSol protein solubility set.
# Assay: soluble on expression in E. coli; label from the status in PepcDB or PDB records
row,Sequence,soluble on expression in E. coli
1,MGSDKIHHHHHHMELQLQNLALSFKNKPNVIHDISLTMNGGSIVGIVAPNGTGKTTLLRLILNDLKPQAGKVLVDGKSYGSQKQSLALHRQMCLFPVQDDLYPDLSGKAHLEYYAKLWHNRSKSVKQIINVLDMRDYINQPVRTYSMGMKQRLCFGMVMAANTPIMLLDEFMNGLDTINVARMSRILRGLRAEGKLIITVSHLLNNLQGYADLIYFMRDGKIIKTIDQHEQQPLYVQVAEENASRLPRMPWEHYPNGMLVLPIQKLPGEHFNQLLLGLAAHHIPFKLGPLDLDTYFNEFYETDQ,not soluble
2,AIADTRSLQDFQDLCTFDVFKSFGHYYGYGVDQQALIDQEFKRIKGVTYLDHAGTTLFPESLIKGFHDDIPRNVYGNPHSHNSSSRLTHDTVESVRYKILAHFNTSPEDYSVIFTSGCTAALKLVADTFPWKPMSNKEPGSQFCYLTDNHTSVVGIRGATALQGVGTISVSPREVETRARNKTQTNGEEECSTPHLFCYPAQSNFSGRKYSLSYVKGIQSQQLYPACEHHGQWFVLLDAACFVSCSPLDLSQYPADFVPISFYKMFGFPTGLGALLVRNEAAEVLRKTYFGGGTAAAYLVEENYFIPKPNLASR,soluble
3,GTRKCELQGLWRNELGSNMTISALDVAGTFSGSYQTAVTATNKQILVSPLKGAQQPPGTKGQQPTFGFTVQWQFADSTTVFVGQCFVDRRGKEMLEMAWLLREEVPSRKDTWKATRVGTNVFTRVK,soluble
4,MPPPGIPPPFPPMGLPPMSQRPPAIPPMPPGILPPMLPPMGAPPPLTQIPGMVPPMMPGMLMPAVPVTAATAPGADTASSAVAGTGPPRALWSEHVAPDGRIYYYNADDKQSVWEKPSVLKSKAELLLSQCPWKEYKSDTGKPYYYNNQSKESRWTRPKDLDDLEVLVKQEAAGKQQQQLPQTLQPQPPQPQPDPPPVPPGPTPVPTGLLEPEPGGSEDCDVLEATQPLEQGFLQQLEEGPSSSGQHQPQQEEEESKPEPERSGLSWSNREKAKQAFKELLRDKAVPSNASWEQAMKMVVTDPRYSALPKLSEKKQAFNAYKAQREKEEKEEARLRAKEAKQTLQHFLEQHERMTSTTRYRRAEQTFGELEVWAVVPERDRKEVYDDVLFFLAKKEKEQAKQLRRRNIQALKSILDGMSSVNFQTTWSQAQQYLMDNPSFAQDHQLQNMDKEDALICFEEHIRALEREEEEERERARLRERRQQRKNREAFQTFLDELHETGQLHSMSTWMELYPAVSTDVRFANMLGQPGSTPLDLFKFYVEELKARFHDEKKIIKDILKVNTAFEDFAHVISFDKRAAALDAGNIKLTFNSLLEKAEAREREREKEEARRMRRREAAFRSMLRQAVPALELGTAWEEVRERFVCDSAFEQITLESERIRLFREFLQVLEQTECQHLHTKGRKHGRKGKKHHHKRSHSPSGSESEEEELPPPSLRPPKRRRRNPSESGSEPSSSLDSVESGGAALGGRGSPSSHLLGADHGLRKAKKPKKKTKKRRHKSNSPESETDPEEKAGKESDEKEQEQDKDRELQQAELPNRSPGFGIKKEKTGWDTSESELSEGELERRRRTLLQQLDDHQ,soluble
5,MVCLESDTCQSSQLLNTSFKRGFFSNLYPMIKRTAVERCPLFSVETGFYLKAPGILFVIERKKKQMNHETIQKLQFTTILKEVQTRAIGEYSKERLAKMVPATRLETVQSRLTETTEARLIIDSGQHVPFMGLSQITRLLQQVKKGLILTPNELIEVADFLRSSQRIQKFFEKNQYQTPRLFSYSQHLADFRAIEEQIYTKIHNQKVATDASRQLRKIRRQINECQQEIETKVTKFLRNKNNQLYIQENMMVKKGEHYTVPIKASYKNKVSGTIIEQSNKGQTVFIEPVAISKLNEQLTLLKAEETAEEYQILAELTGLINEQERLVDQAVDTMTTLDIIFARGKYSREIGGITPKVNKEERLRIVQGKHPLLLEHAVPLTFSLGAEYRGLVITGANAGGKTVVLKTVGLLTVMTQFGLQIPAQAGTEIPVLDEIFVDIGDQQNLENALSTFSGHMKNIAEMLRNVKRHTLVLLDEIGSGTEPNEGAGLAIAIMETMYQKGALVVATTHYGEIKRFAQEHDDFVPAAMAFDRETLTPKYQLKIGEVGDSQALWIARKMKMEPQLIEKAAHYIQRKEYPTNRSLFKPLKAKETTFATFVEETHRYQKGDRVLLTETQQIGLVFTDEGEQEIQVFVNDKIENVPRRRLKLQAKAQDLYPQDYDLESLFTDFHERKKLKDIERGSKKAQKQLRKEAEKRAARRDK,not soluble
6,MGSSHHHHHHGKTIFVIVPTNEEQVAFLEALAKQDELNFDWQNPPTEPGQPVVILIPSDMVEWFLEMLKAKGIPFTVYVEEGGSENLYFQGGGGGGSDGAIVPREGSPQSISEELERRRSEARNLELRVSRKEAELQRAKEEQELLKEMRTVNEMIIRKKERQLSEGVANGVKISPESLAELNALGDALRLENLKTVELQREADVTSHQMEEVERSLENTEKQLLEAKRSTGWDVDRNSARTETAMESAFKEKKRLLSSLTSEQRTLSELSERLKQHAEECQAKVDAAEGMDERFAEAEEQLRQANARYRELIEEVMSNERIQKKTERVLTVANTQDKYKCIRQLEGEKRALHNDLSKLRETNVSNSRSILSLEVRLRQLETRLEAVNGFLREVFAEVEDDEPMDNVPEGAVEVPLALFEELSAALELSRETVVQRDDQLDEHDCKIEQMERKVVILQNAIASRAVSAQVQARGRDTQQRSMYANHSRRRSQLRTERDQLAVENTVLRNRLALL,not soluble
7,MSLRTLYSGGLVFDGIGNLLEQHGVLVDGQKICRIAPLGEFEGFSDEKVDTSDGTLLPGLIDCHVHIVYSGEADPKSHLLKLRPGQIVINALENAKKTLSNGITSIRDLGGRDFLEFAVRDACNSGRQTGPTIRAAGRMICMTGGHGNAFGRVADGPDEVLKAVREQIHAGSDVIKLMATGGVMTPGVNPEDAHYSEEELRVGVNEGHRFNRKCASHAQGSAGILNAVNAGMDSIEHGIFMTQESLESMLKHQTYLVPTLSAVNNIYLNRDNGIPEFIVEKTLRIRERHHQSIKMFYKAGGKMAMGTDAGTPFNLHGENTNELQYMVDLGVSNLDVLKISTVNAADLMDLEDRGIIQEGFYADFLIVNGDPVKDISKVADRKNHRIVVKNGVHINEGHHHHHH,soluble
8,MSQFGATAIGIANIAMNGEVLDTWYPTPELVPASTSPSYSERLGAQDLPPKLLSLVRLDEDRLVEQVAVRTYIGDLDTPPIDAHDVFLRLHLLSHRLVRPLEINMDNAMSILSRVVWTNKGPCLPENFENIRMSLRNRGLIHVYGIDRLPRMVDYVVPTGVEITEAERVRLGAYLAEGTKVLREGYVSFNAGTLGAGRIEGRLYSGTVVGDNVDLGISASIVPDKPHAQLRVGANCVFGLGSAVMGINLGDNVRVGNNVVIDKETMVYFADRDITAAAAILDGQSDWQIHAESGRPEPVVRPT,soluble
9,MSSPARQYRGRSSEQRAAERRARLLEAGLQVFGTVGGEKATMTAICAEAKLTERYFYESFRDRDDLLVQVIEGIAAEIAEAARVTLQTVTGDPEVRARAAIATFVDILTADPRKGRVSIIESAAAEPLRTRRRELLRAFALLVAEESKELYGDRAWSSPQDEITALLFVGGLAELMTAWLNGEIEVSPEQIVDAATYQFTSTAHR,not soluble
10,SQELRGEIKLFCSVTASYSHLPELLSSFRLKHPYIEFKLLTGDPAQAIDKILHDEADIAISAMPEQLPSRIEFATISEIPLSVIAPLGISSFMDELQKEQPDWNEIPFIVPESGTARDRANTWFKQMKIKPNIYAQIAGHEAIV,not soluble
11,GPGSMFFLTRFKLGMADVTAAIGSGKCGEVLRKLNEKKAVREREENIDYRRALCFLANSQDVFHARQALLEELRHFPNNTAARTLLLEVNETVRPLLMPPKELLKSEPLFGLLCDALLDHTMLTWTRLYSLYRLSKEVCSKEGEGGALMECGVSGGGSVVLLAVVAAHYSKKPRKIYALDTFSGMPEPTTHDNLEEDGNLKPAESTSWGSGTCSATVENVRQLAKNFDVEEGLVVIPGLFHETMPKTLREISDEGISMLHVDADWYESTRCALELAWPMVKQGGMVQVDDYHYWLGCRKAVDEFAQREESEHRPLPILQNVDGNAVYFTKP,not soluble
